According to patent publication US20100003244A1 (TRIGEN, published 2010):
Values joined by “and” are separate entries in the source; they are usually repeats but may differ in a detail not shown here. Equal values may be shown once. Values belong to the molecule of their own block, whether it stands above or below them. Ends that are not written are not given here.

Legend:
mouse GPVI (mouse) = mouse GPVI (mouse) (UniProt P0C191); experiment: cell-based or functional assay
GPVI peptide 117 (human) [1] = target: T1, GPVI peptide 117 (human); experiment: PepSpot control incubation
T1 sequence (peptide, N-terminus acetylated): SFTNKVFTTETSR

GPVI peptide 118 (human) [2] = target: T2, GPVI peptide 118 (human); experiment: PepSpot control incubation
T2 sequence (peptide, N-terminus acetylated): TNKVFTTETSRSI

GPVI peptide 130 (human) [3] = target: T3, GPVI peptide 130 (human); experiment: PepSpot control incubation
T3 sequence (peptide, N-terminus acetylated): GPARQYYTKGNGG

GPVI peptide 131 (human) [4] = target: T4, GPVI peptide 131 (human); experiment: PepSpot control incubation
T4 sequence (peptide, N-terminus acetylated): ARQYYTKGNGGRE

GPVI peptide 32 (human) [5] = target: T5, GPVI peptide 32 (human); experiment: PepSpot control incubation
T5 sequence (peptide, N-terminus acetylated): SSSRYQDQAVLFI

GPVI peptide 33 (human) [6] = target: T6, GPVI peptide 33 (human); experiment: PepSpot control incubation
T6 sequence (peptide, N-terminus acetylated): SRYQDQAVLFIPA

GPVI peptide 53 (human) [7] = target: T7, GPVI peptide 53 (human); experiment: PepSpot control incubation
T7 sequence (peptide, N-terminus acetylated): LVATGVFAKPSLS

GPVI peptide 7 (human) [8] = target: T8, GPVI peptide 7 (human); experiment: PepSpot control incubation
T8 sequence (peptide, N-terminus acetylated): LCLGRVPAQSGPL

GPVI peptide 11 [9] = target: T9, GPVI peptide 11 (human); experiment: PepSpot control incubation
T9 peptide: Ac-QSGPLPKPSLQAL

GPVI peptide 37 [10] = target: T10, GPVI peptide 37 (human); experiment: PepSpot control incubation
T10 peptide: Ac-LFIPAMKRSLAGR

GPVI peptide 54 [11] = target: T11, GPVI peptide 54 (human); experiment: PepSpot control incubation
T11 peptide: Ac-ATGVFAKPSLSAQ

[12] = target: collagen (type I bovine; BD Bioscience) (bovine) (UniProt P02453); experiment: ELISA, collagen type 1 coated plates, Lineweaver-Burk plot
Chain of collagen (type I bovine; BD Bioscience) (bovine) (P02453 162-1217, chain 1 of 2): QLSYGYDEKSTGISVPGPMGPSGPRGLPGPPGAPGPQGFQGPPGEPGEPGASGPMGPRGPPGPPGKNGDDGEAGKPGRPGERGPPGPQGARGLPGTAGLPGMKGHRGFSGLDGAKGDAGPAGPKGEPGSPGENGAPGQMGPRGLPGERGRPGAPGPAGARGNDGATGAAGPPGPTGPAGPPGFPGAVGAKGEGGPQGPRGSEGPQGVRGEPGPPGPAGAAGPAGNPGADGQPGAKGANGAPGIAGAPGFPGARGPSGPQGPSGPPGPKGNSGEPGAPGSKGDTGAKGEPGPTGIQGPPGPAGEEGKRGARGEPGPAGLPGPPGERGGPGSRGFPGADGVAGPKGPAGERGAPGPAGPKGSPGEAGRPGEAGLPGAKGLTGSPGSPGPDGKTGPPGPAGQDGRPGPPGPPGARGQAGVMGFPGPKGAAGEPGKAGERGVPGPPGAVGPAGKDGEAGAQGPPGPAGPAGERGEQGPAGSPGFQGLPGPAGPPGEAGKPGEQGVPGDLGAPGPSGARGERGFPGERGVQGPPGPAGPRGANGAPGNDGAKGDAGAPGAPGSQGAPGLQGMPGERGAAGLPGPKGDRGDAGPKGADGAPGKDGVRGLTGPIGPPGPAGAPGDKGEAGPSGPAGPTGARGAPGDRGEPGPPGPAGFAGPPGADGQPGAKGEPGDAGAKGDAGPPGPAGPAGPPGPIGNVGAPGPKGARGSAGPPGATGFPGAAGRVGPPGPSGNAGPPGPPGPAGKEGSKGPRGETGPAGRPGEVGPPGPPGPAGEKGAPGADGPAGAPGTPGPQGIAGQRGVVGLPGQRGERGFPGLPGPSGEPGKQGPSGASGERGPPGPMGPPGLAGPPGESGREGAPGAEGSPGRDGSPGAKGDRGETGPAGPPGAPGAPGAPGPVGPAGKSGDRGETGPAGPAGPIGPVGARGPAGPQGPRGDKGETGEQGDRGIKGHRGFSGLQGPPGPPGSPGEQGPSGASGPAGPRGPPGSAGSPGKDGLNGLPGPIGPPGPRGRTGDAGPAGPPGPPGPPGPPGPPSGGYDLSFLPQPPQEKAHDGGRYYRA
Chain of collagen (type I bovine; BD Bioscience) (bovine) (P02465 80-1117, chain 2 of 2, further chain): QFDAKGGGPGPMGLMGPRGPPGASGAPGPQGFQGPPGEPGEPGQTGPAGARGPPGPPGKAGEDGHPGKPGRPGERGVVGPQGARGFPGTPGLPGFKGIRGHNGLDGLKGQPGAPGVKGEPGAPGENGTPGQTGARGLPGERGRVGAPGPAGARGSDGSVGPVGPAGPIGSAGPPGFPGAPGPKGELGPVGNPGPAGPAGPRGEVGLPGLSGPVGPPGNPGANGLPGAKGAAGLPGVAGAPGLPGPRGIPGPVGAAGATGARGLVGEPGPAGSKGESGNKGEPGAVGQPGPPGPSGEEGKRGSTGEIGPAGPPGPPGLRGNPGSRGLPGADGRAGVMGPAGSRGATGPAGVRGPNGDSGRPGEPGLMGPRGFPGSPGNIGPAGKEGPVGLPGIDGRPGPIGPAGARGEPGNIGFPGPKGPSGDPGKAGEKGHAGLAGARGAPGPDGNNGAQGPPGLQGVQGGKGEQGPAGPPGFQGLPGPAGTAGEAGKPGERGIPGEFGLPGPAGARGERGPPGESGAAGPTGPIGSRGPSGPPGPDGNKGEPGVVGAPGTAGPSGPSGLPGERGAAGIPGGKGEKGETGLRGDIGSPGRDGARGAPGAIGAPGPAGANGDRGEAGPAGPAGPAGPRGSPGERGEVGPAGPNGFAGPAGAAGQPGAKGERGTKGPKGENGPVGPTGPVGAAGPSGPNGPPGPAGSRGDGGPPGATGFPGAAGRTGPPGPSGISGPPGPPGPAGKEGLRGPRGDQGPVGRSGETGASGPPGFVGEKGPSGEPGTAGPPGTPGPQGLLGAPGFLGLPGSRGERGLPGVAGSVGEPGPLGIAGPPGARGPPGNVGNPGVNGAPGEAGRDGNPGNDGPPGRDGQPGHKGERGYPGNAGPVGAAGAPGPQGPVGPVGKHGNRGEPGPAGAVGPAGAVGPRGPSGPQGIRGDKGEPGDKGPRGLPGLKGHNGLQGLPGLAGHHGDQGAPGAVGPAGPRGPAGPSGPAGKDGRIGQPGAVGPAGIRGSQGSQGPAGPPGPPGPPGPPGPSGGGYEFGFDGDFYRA

Fc-GPVI-nt (human) = experiment: competition ELISA, immobilized collagen
Chain of Fc-GPVI-nt (human) (chain, as listed by the source limits assumed): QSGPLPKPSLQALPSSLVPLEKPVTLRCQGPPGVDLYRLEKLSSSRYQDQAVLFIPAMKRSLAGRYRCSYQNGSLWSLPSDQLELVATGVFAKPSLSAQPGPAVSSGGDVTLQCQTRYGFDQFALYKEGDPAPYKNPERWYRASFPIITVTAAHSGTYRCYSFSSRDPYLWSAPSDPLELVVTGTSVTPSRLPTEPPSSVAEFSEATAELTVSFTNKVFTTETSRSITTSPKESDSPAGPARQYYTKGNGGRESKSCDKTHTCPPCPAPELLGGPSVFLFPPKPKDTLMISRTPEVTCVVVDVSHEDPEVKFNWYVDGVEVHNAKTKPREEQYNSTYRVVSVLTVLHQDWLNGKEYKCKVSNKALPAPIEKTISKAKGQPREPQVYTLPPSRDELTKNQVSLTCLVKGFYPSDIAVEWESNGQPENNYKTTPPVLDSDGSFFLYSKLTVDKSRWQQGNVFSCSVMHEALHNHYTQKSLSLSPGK

GPVI peptide 117 (human) [13] = target: T1, GPVI peptide 117 (human); experiment: PepSpot array
GPVI peptide 118 (human) [14] = target: T2, GPVI peptide 118 (human); experiment: PepSpot array
GPVI peptide 130 (human) [15] = target: T3, GPVI peptide 130 (human); experiment: PepSpot array
GPVI peptide 131 (human) [16] = target: T4, GPVI peptide 131 (human); experiment: PepSpot array
GPVI peptide 32 (human) [17] = target: T5, GPVI peptide 32 (human); experiment: PepSpot array
GPVI peptide 33 (human) [18] = target: T6, GPVI peptide 33 (human); experiment: PepSpot array
GPVI peptide 53 (human) [19] = target: T7, GPVI peptide 53 (human); experiment: PepSpot array
GPVI peptide 7 (human) [20] = target: T8, GPVI peptide 7 (human); experiment: PepSpot array
GPVI peptide 11 [21] = target: T9, GPVI peptide 11; experiment: PepSpot array
Method: (§1) The peptides were synthesized on a cellulose membrane in a stepwise manner resulting in a defined arrangement (peptide array) and are covalently bound to the cellulose membrane. Binding assays were performed directly on the peptide array. In general an antigen peptide array is incubated with blocking buffer for several hours to reduce non-specific binding of proteins or antibodies. It follows the incubation with a primary (antigen peptide-binding) antibody in blocking buffer and an incubation with a horseradish peroxidase (HRP)-labelled secondary antibody, which binds selectively the primary antibody. Alternatively a HRP-labelled primary antibody in blocking buffer can be used.
(§2) A short T(Tween)-TBS-buffer washing directly after the incubation of the antigen peptide array with the secondary protein or antibody or the HRP-labelled primary antibody followed by the first chemiluminescence experiment is made to get an first overview which antigen peptides do bind the primary antibody. Several buffer washing steps follow (T-TBS- and TBS-buffer) to reduce false positive binding (unspecific antibody binding to the cellulose membrane itself). After these washing steps the final chemiluminescence analysis is performed. The data were analysed with an imaging system showing the signal intensity (Light units, LU) as single measurements for each peptide. In order to evaluate non-specific binding of secondary antibodies, incubations using the secondary antibody have to be performed in the absence of the primary antibody as control incubation.

GPVI peptide 37 [22] = target: T10, GPVI peptide 37; experiment: PepSpot array
Method: as §1, §2

GPVI peptide 54 [23] = target: T11, GPVI peptide 54; experiment: PepSpot array
Method: as §1, §2

Chain of mouse GPVI (mouse) (P0C191 22-313): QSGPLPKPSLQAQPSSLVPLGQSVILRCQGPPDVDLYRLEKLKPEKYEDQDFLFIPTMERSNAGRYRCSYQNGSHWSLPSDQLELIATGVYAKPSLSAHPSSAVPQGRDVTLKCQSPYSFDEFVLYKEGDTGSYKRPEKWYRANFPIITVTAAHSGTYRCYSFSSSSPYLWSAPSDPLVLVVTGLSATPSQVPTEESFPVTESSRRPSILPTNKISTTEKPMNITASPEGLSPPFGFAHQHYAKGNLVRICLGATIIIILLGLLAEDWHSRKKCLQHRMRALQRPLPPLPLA

Molecule: JAQ1 (antibody)
ATP release, mouse platelet-rich plasma (mouse GPVI (mouse)): 1.09 nM ATP | platelet aggregation after stimulation with 2 µg collagen/ml, mouse platelet-rich plasma (mouse GPVI (mouse)): 2% and 1.5%

Molecule: soluble collagen (ligand)
concentration required to reduce Fc-GPVI-nt binding to immobilized collagen by more than 50% (Fc-GPVI-nt (human)): 100 µg/mL

B1: monoclonal antibody hGP 5C4 (antibody, V domains shown)
VH: EVKLQESGGGLVQPGRSLKLSCTASGFTFSDYFMSWVRQAPTRGLEWVASISSGGASAYWRDSVKGRFTISRDNAKSALYLQMDSLRSEDTATYFCARGELDFDYWGQGVMVAVSS
VL: ADPNSTLLSASVGDRVTLNCTASQNVYKNLAWYQQKLGEAPRLLLYSANSQTGIPSRFSGSGSGPDFTLTISSLQPEDVASYFCQQYYSGNTFGAGTKLELKR
notes: Monoclonal IgG from Lou/C rats immunized with Fc-GPVI-nt; also called ab 5C4; anti-GPVI mAb 5C4
LU (Light Units) (GPVI peptide 117 (human) [13]): 472 LU | LU (Light Units) (GPVI peptide 118 (human) [14]): 336 LU | LU (Light Units) (GPVI peptide 130 (human) [15]): 255 LU | LU (Light Units) (GPVI peptide 131 (human) [16]): 289 LU | LU (Light Units) (GPVI peptide 32 (human) [17]): 319 LU | LU (Light Units) (GPVI peptide 33 (human) [18]): 259 LU | LU (Light Units) (GPVI peptide 53 (human) [19]): 359 LU | LU (Light Units) (GPVI peptide 7 (human) [20]): 292 LU | signal to noise ratio (GPVI peptide 11 [21]): ~20 | signal to noise ratio (GPVI peptide 37 [22]): ~4 | signal to noise ratio (GPVI peptide 54 [23]): ~4

Next, values leading:

LU (Light Units) (GPVI peptide 117 (human) [1]): 377 LU | LU (Light Units) (GPVI peptide 118 (human) [2]): 354 LU | LU (Light Units) (GPVI peptide 130 (human) [3]): 343 LU | LU (Light Units) (GPVI peptide 131 (human) [4]): 389 LU | LU (Light Units) (GPVI peptide 32 (human) [5]): 240 LU | LU (Light Units) (GPVI peptide 33 (human) [6]): 204 LU | LU (Light Units) (GPVI peptide 53 (human) [7]): 240 LU | LU (Light Units) (GPVI peptide 7 (human) [8]): 239 LU | LU (Light Units) (GPVI peptide 11 [9]): 212 LU | LU (Light Units) (GPVI peptide 37 [10]): 280 LU | LU (Light Units) (GPVI peptide 54 [11]): 190 LU
Molecule: anti-rat-HRP (Sigma A9037) (antibody)

fold lower affinity compared to dimeric Fc-GPVI-nt [12]: 10 fold
Molecule: monomeric GPVI fusion protein (Fc fusion)
